Patent US20220089707A1 (University of Texas, published 2022)

Target: T1, β2-microglobulin (UniProt P61769 21-119)
T1 construct: also called beta2-microglobulin
Experiment: ELISA

T1 sequence (P61769 21-119 limits assumed): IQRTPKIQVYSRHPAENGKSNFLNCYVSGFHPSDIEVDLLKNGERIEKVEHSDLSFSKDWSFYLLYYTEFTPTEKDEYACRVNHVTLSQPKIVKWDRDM

B1: A2-DKK1 mAb (C2) (antibody, V domains shown)
VH: DVQLVESGGGLVQPGGSRKLSCAASGFTFSSFGMHWVRQAPEKGLEWVAYISSGSSTIYYADTVKGRFTISRDNPKNTLFLQMTSLRSEDTAMYYCARPYYYGSTYDAMDYWGQGTSVTVSS
VL: DIVMTQSHKLMSTSVGDRVTITCKASQDVGSTVAWYQQKPGQSPKLLIYWTSTRHTGVPDRFTGSGSGTDFTLTISNVQSVDLAVYFCQKFGSYPLTFGGGTKLEIK
notes: Murine monoclonal antibody from a Balb/c x SP2/0 hybridoma; also called C2 mAb; antibody C2
  binding result: no binding
